In the NTF2 design screens of Basanta et al. (2020):

Test: protease stability score; higher = more stable; yeast display proteolysis, trypsin and chymotrypsin;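 also: log10 excess protease needed over predicted unfolded state with 0 meaning unfolded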

| Sequence | protease stability score |
| --- | --- |
| DTEVQQRVEHYLRLREYNSPEHLIEMVDPNAKIEIGNKEFHGMENYAHTMRKRVEEWRLEIKHISVTIRNGRVVARIDQEVDIDGNPVRYTYKVVYDAHNGNIKHIKNDVDPRQQQQQHK | 0.176 |
| DEEKVVKVLKQALEAVQKGNQERVRKLGKPDVEVEAVNIREKGPEALRKAAQYVQKLGDKFEYKEEREEGDKVTTKVDVTRGGQTVTYQVDVVAEGGKVKEWVVNFSDTFAERVKKS | -0.268 |
| DDEANTVFREQLHQLEEGNHKEVAKNFDPNVRVSVGDRSIHGSEEVNTRIRRQAHESRIQVDHMSDDNSNGRVTMSADQVVNENGKPSTHRYKLTARVHNGKVKSMVITRDG | -0.575 |
| DEDLQEFAERLLQVNRTGDEDQFRRNVDPNAKMVVGDKEYHGRDELARFFRHLREHARFELNVKSVSVEGDTVEIHFEARVDINGKPLTYEASMSMRVEGDRVKRITFRMDPDQRRKAHS | 1.11 |
| DDRDLEQLLRELVTIWKNGNFEDLSRQADPNVKFRVGDKTYHGREQASKLWKKLSDQADHWSVDSVQAKGDTLRLDFRATVNGHEVRMVYHARIQNGSITSWEIQYTSEELHTRVER | 1.09 |
| DHQVVRSFMDVLETGDWDKLKDLVDPNAKMFYGNKDLTGRDAQTHFSEVMKRRVDEIKIDSYDMKGDSAWADFVLVFNGVEIRFILRVQFHNGNVISMRFEVTDPKQKTQLDRAAS | 0.714 |
| DERDLKEALDLVKTGDFTRIARMADENVKLKVGDKDVHGREDAKRLMSQLEKQVDHYEIDDVTLEGNSASIDAHFNVNGNRIRFVVVIHVHNGKIKHFTIHVRDEEDKDKLRKDDG | 0.799 |
| DERELDNASRVATNIATGDEEKVVKLADENAKLNVGDNEVHGTEQATREVKKTQNDLRRNVESFEIDKNGNHARLEATVYQTVNGKPVRYKMSAEVHVHNGRVTKVDVQMDHRLLQRNKK | -0.037 |
| EEDVVEQLKDWYRAVNSGDEERLTQLMDPNAKAEVGDKRVHGMDEYARQQRTRNEKLRFQINSIEIRAKGNHVSVNVDANYHFDGQPRRDTWHIRMQFHNGRLKTLSVTMDPTLLREMEK | 0.931 |
| DEQEDRDRLEEALHAVMTGDEDRLMELADPNVEIQIGDKTFHGNTEARKVVETLKRKVDHLRVEEITKRPGSAFVIAVMEVNGKQVTVTVRIQAENGRIVHVSMNPKQLQDLKS | 0.776 |
| DEEVQELVERIMTAFRTGNPEEVHKNLDPNAHIEVGDKRLHGMETIVHTIERKLRHARIDMKIDEMEVRNGRVEARVSFHVDVNGEPYSNSFSFQIEARNGKVKKVRVQIDPRDQRKMDS | 0.877 |
| DEKKWEQWARHFNQLMKQNDPDTLMQLFDPNARVKYGDKEVHGRTQIVKMWQTLVEQVDHIRIKNYSVSGDHVVIEIIVVVNGQEVEFVFRARVHNGTIKSASIDYRNEEHYKRAQG | 0.264 |
| DEEERSKLAERLVKAVQNNDEDSLLDNIDKNARVVVGEKTYHGRENARHAMQQFDEDVDHLQVRTFEVHGEHIRIQFEVNINGHTHTVVLDAEVKNGKLTDVKFDPDDMRKATS | 0.14 |
| DEHARKQFEDLIRALSTGDPERVAQLVDPNAHFQVGDQTIHGREHLMEDVKRRRDKMRMELHVDHVKVDENHLDAIIRVVQDTNGDPDHKKYRLVAQWQNGRVNNQEMQETS | 0.541 |
| DESKEAHTLAKKYVELVKKGDQEKMKTMFDPNAKAHIGDKTYHGMTDFVETLVEQAKRVDHQSVDVKSVEVDGDHIDVEVTVKYTYNGQNRSNVERFIVRNHNGKWRVKEWHDK | -0.145 |
| DEREHAEDYARQLDKAFRTGNPDEVMKQVDKDAHFQVGERRFHGEDEFKKWAEEVFERADHIHFRVREVTRQGDKIDVDMQVDMTTNGKRETDKVRALIDTQNGRQRVDEMTFK | 0.651 |
| EEHVMRIVTNQLEAIKHGDEDRVRDLADPNARFHVGDKSIHGMEKYANDLRSEMEHMQVEFNLQSVTVEGDKVVITFEAQFNQNGKPKNYREVFRVEAQGDKIKDYRQERKD | 0.001 |
| DEEFLKRLVKILRTGDPDKLVNNFDKNARLEYGDKTVEGKNRIKKFMKDLHDRVDHFDIESVTLEPNHLDFTMKAQINGRDVKVRVRVEVHNGKIKHATYKYTNEDQERNMKHVKS | 0.561 |
| DHKEHAEKFAQQLDEAHKKNDPRQFLRLMDKDVRVSVGDKTVHGKENIRKQLEDLTKQADSIEFKVKSIRVTGDKVRLEFEVVYRHNGRHSRQTVVMYLKLHNGRAVIKSVQVK | 0.159 |
| DEEEAKKVMEKWMKVVQKGDKDKVKKLYPPNVNWLNINTQKQGVEVVVKMMKQVQDKGAQFQVRRAEVKGDEAEMQYDLRIGDKTATFTVRIRAKGGQVEMVEVKVTEEAKKIVDTG | 0.111 |
| DSEKYLKDLNSNLLRILQTNDEKKLRDLVDKDVKITVGDKSYHGREEFAKVLRTLLNEHDKWRVHYQSIHQHNGKLRAVIDLKAENNGQTLSRNLDITAEERNGEVHVKHAQIG | 1.08 |
| DEEKDEKIRKWQTNVKHGNEDEIRKNADKDAHVHVGDKQYHGHHRIRKLMTNERRKMRVDQKIETVSANNGRATVIVSATFDVNGQPLTDRENVVLIMHNGKIQEVRVDMDPDLHRQLQS | -0.51 |
| DEEKLDKVMKMVRDALQKGDQEKAQKLVKPDGHFQVGDQELNGYDQVRKYYKKVKDLGAEAHVKKTDVRGNTFRLEYDARLKGVQVTIRLEVRVKDEKVDEARADMTEDYAKHVTKG | 0.53 |
| DDEHANSMADQLQKAFETGDEDQIRRLMDKDVSINYGDKRIKGSRELAHWVATLRRQVDSIEYKSIHVKGDKVDIDVVVNVNGRNARFTLVARFSNGKFKELRVDPENMKRLKS | 1.47 |
| DDQELAEDAQRQFQEVLKTGDPKRANELMDEDARLEVGDTQLHGRERVAKHLSDLRKQADHIDVRVDTIRVHNGRVDADVRIRITKNGQNREFRARLYFTVQGDKVKMKRLQES | 1.38 |

| Sequence | protease stability score |
| --- | --- |
| DEHLVRLADRLLTAVRHGDEDRWVEQFDPNATVKIGDKELHGRSQIKTELERERDTSRVNVQRFSIEDQGDKAVVDVEYVITKNGRPQKDRAKATYNVNNGRFKNASMQKVS | -0.413 |
| DEEEVRELAERFAENLERGDFHKVANQADPNARMQIGDTRYHGREELQRFLKELMERVDHLQIRSVKVRGNHVTIRMHVHYNGKSVDMHMTFHAKNGKIKHVEFNPKDFDKARR | 0.813 |
| DEKKATKVAKQIQDMMVKGDSDKVEKVGKPNVEFQVGDVKMKGPDELKKYYKKVKDVGNELHVKEAKVEGDTVEVHYDLRHGGTQATVTVRIELKDDKVDRAKVDVDEHYKKIVKKG | -0.068 |
| DDHEVAKQNMRDLLTILNTGDPDKAEEMADKDVKIDVGDKRYHGQTKMREWIEELRKRYDHIHADVKSVEVHNGQVRADIEMVFNHNGREETVKVDVKAELDGDKVKIENLVLR | 1.3 |
| DEDAQELAEQLWTAWETGDPRQIQNLMDPNVNFRYGDKTFQGREHLHRLIKDIQENIRIDYRHYSVDVKGDKASIKINIQLHHDGKPETKTNDLTIHFSGDRIQRVEQNDRQ | 0.248 |
| DEDRARRLMEKMFKIILNGNDEEARKMGAPDVEYQYADKTFHGEEAMKYIVKVVKRVGVKVRQEKHEVHGDTATAHFQYENGDTTVETQAHVQYEGDKAKKVEVKNSDEVRKLVDQG | 0.228 |
| DDRLNEMARRFITLLTTGDPKEAHKYMDENARFQIGDERYHGMHEFERLLTERQKTSRVQINSLEVQHEPNRANIHADVENERNGQPRRFDVIIELHAHNGRIKEITYEYRQ | -0.009 |
| DDQNLRSAVRRLVDGNEERAKDTLDENARVEVGEYNFHGREEAQKAFQTMQDRIDHINVKSYKYQGDKASVDMVVEFNGRSVKFVVVVRVHNGHLVNARVQFTDEHQHKRAKEMID | -0.104 |
| DEEVLHLADRWWEAVDRGNERQLKDNADPNVKVRVGDKTIRGRDQMAKEVRHRREEQRVNYHHFRQDVSGDKANVTVHYTREHNGKPETNVIEVVFQAHNGKIVSITVRHDG | -0.148 |
| DEHNAHVLKQAMEAMATGDEKRFVELVDPNARMKVGDKEIKGREDFQEYLTDLHRHARVEVHHIHVNDNGDRFEIDVTQVIEINGRPDTKRMTLEAVAHNGQVKEINLRVPEEEWRRLER | 0.316 |
| DERVKSQATEFVTALKRNDEKRLMELADKDVSVRYGDKVVHGRERVRETARHITEESRVEYDTVRVDVQGNQANVEMEATFDHNGKPDRAKVNIQINFHNGKIKRVRIDKKP | 0.971 |
| DEEDYKKMNEQLERIYKHGDPEEAEKMFDPNAKAEVGDKTIHGREEFRKYQQDRKDQADHVQVKDFKVQGERFVMEVVAHVNGREVRQVVNFTVHNGKIQDLKVREK | 0.013 |
| DDEEARDIIRLMRHGNFDNIVKQMDPNVTLRYGNNTFHGRERAKHAAQRLKTHIDHVHLKDYKVHGDKIVIDMVYNVNGKHYEVRVVMHIHNGRIQKVQWDFRDDRDETDAEKRLS | 1.28 |
| DERKVDVARNVAKAILTNDPDRAMSMVDKDVTVVIGDKEINGHEDFREHIEKQSKEAKLDMRSVDADNRGDKAVLTLDYQIDYNGKPMRDTQTIEVHVTNGRVKELRVRVDESLKRDLKS | -0.28 |
| DDEAVRAMKRWMDALKTGDPDHLKNNIDPNANIDVGDKRVHGREQIMTMVEKELHEIKITITSINFEDHGDKAVVIINYIRDHNGRPQSNRATLEAEVHNGRIKELKMKDDK | 0.468 |
| DEERVKDLVKKIFKDIRNGDEERVRKKGKPDVKYEYADKTFEGEDAVRFIVEILKKVGAEDKTQNETVHGDKAQANFQYDKGDQTAQTTAQVEYKGDKVDKMRVKISEEVKKVVEQG | -0.116 |
| DEELRKQAEELLKARKTNDERQNEELFDPNAHVRYGDRTLHGNEQASKDIADRLEEIRVSMSVEKVEVQGEHVRLEFKFEFEVNGRPQTQTATEEMTVHNGRIKEVRLNVSEEQKRRYKK | -0.026 |
| DEETDEKVAKTLMRIMRTGDPKQYADQADEEVRVVVGDQTYTGRESVSEAFEEWTERVDHLEIKDIRVHGEKVNIDAVVDINGHQRKIEFSMTLHNGRIKELVYTDG | -0.598 |
| DEKKVHEVLKKLRKALEQGNVDEMVKMGKPDVEFHFFDTKIEGLDQLHEYYKTMKDHGAELHVEETKVEGNKVEVVYVLKLGGTQVKVTAQIEIKDERVVRARAENTEEYKKRVKKG | 0.359 |
| DERLHKQIERLFEQLNTGDEDKYVEYADPNARINVGDKNVHGRDQIRHMIRKENQEIRVEYEVKDIKASNGRARVDATVENEENGRPHTNRIDLVINVHNGRAKEIELRVPEDLLRTMKS | -0.131 |
| DEDHNRRVAKRFIEAVLSGDPEQAKRNADKHVKLQVGDKEYRGRDDLKTWIEQVSTRADHNQIHSMSVSGNRMNVDVKFNHNGRRERTVIRVEVENGKVKKVEVHSG | 0.975 |
| EDRQNQEVNKKAQKGDWQHLRELADKDVTLQVGDKQYHGREKFQELLKKLETSVDRFKVDSITFHNGKVKVRAQAVVNGQKIEFVIIITFHNGRAKSMRIQARDEDLEKELLKMLS | 0.944 |
| DEDQVRRIIQDLRRNNFEKMVELMDEDVKIDVGNYDYHGREAAHEILDRIRRQIDHIEYKSVTAQGDKIDVKAVAIINGKEWTFRVEVDADNGRIHSMKIRFRSEKEEQDYQKEVQ | 1.11 |
| DEDNQREANRAAKTGDFKRMAEKADPNVSVTVGDKEVKGREEVHKFVQRFDDQVDDLDIKSFRVEGDKVHVQATAVFNGKKIEFSFSARIHNGKLTKMTVKVRDPRQQKKLQKQWE | 0.004 |
| DKEEFEKTAKTFMKVWTNGDPDQWKELMDPNARLQIGDKEWHGREEVREAITQFHDRVDHIEVKDLKVTEDHVRLIAVVRFNGREVKVTVNIHFENGRATHVENHFTDDDQLKRNLS | -0.084 |
